In patent US7819908B2, “Compositions and methods for reducing lung volume” (Aeris Therapeutics, Inc., priority 2002, dated 2010):

System: sheep
Assay: Papain-induced emphysema in sheep: lung physiology, plethysmography, CT
Type: in vivo
Excerpt: We examined the safety and utility of trypsin preconditioning for BVR in a group of seven sheep with emphysema generated by prior exposure to papain inhalation. This large animal model of emphysema is one with which we have extensive prior experience.

[1] = papain-induced emphysema, Campbell diagram

B1: papain: enzyme given by inhalation or instilled bronchoscopically to sheep to generate the emphysema model (protein, UniProt P00784 134-345, looked up)
Papain: IPEYVDWRQKGAVTPVKNQGSCGSCWAFSAVVTIEGIIKIRTGNLNEYSEQELLDCDRRSYGCNGGYPWSALQLVAQYGIHYRNTYPYEGVQRYCRSREKGPYAAKTDGVRQVQPYNEGALLYSIANQPVSVVLEAAGKDFQLYRGGIFVGPCGNKVDHAVAAVGYGPNYILIKNSWGTGWGENGYIRIKRGTGNSYGVCGLYTSSFYPVKN
tissue density in Houndsfield units measured by CT scanning (2 weeks following serial papain exposure): significant decrease | recoil pressures at full inflation (after papain-induced emphysema, baseline 16.4 cm H2O): 8.9 cm H2O | change in TLC and RV [1]: significant increase | impact on active or passive chest wall mechanics [1]: no significant impact | lung volume measured by plethysmography (papain-treated vs untreated, 2 weeks after serial papain exposure): significant increase | increase in airway resistance (post-papain vs baseline): 75±16% | residual volume (RV) increased (post-papain vs baseline): 66±21% | total lung capacity (TLC) increased (post-papain vs baseline): 10±3% | vital capacity (VC) increased (post-papain vs baseline): 11±4% | increase in total lung resistance (sum of airway and tissue components) (post-papain vs baseline, normal respiratory frequencies): 40±9%
